Source: article PMC3074162

Target: T1, ParB 65-139 (RHH domain) (Leifsonia xyli subsp. cynodontis …, UniProt Q6EEF9 65-139)
T1 sequence: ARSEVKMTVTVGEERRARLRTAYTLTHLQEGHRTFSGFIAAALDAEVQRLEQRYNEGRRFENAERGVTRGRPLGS
Assay: ITC

B1: R3-18-14T (dsDNA)
DNA 1: GGAATAGGTGGAATAGCC
DNA 2: GGCTATTCCACCTATTCC
**Q.** For B1, which Kd is on record?
**A.** 46 ± 8 nM

B2: R3-18-6T (dsDNA)
DNA 1: GGAATTGGTGGAAAAGCC
DNA 2: GGCTTTTCCACCAATTCC
**Q.** With B2 as the binder, how does the Kd read?
**A.** 37 ± 5 nM

B3: R2-18 (dsDNA)
DNA 1: AGTAAAGTAGGAATAGGT
DNA 2: ACCTATTCCTACTTTACT
**Q.** For B3, which Kd is on record?
**A.** 380 ± 100 nM

B4: R3-18-13T (dsDNA)
DNA 1: GGAATAGGTGGATAAGCC
DNA 2: GGCTTATCCACCTATTCC
**Q.** For B4, which Kd is on record?
**A.** 73 ± 22 nM

B5: R3-18-1T (dsDNA)
DNA 1: TGAATAGGTGGAAAAGCC
DNA 2: GGCTTTTCCACCTATTCA
**Q.** Which Kd does the source give for B5 here?
**A.** 67 ± 6 nM

B6: R3-18-3C (dsDNA)
DNA 1: GGCATAGGTGGAAAAGCC
DNA 2: GGCTTTTCCACCTATGCC
**Q.** For B6, which Kd is on record?
**A.** 89 ± 13 nM

B7: R4-20 (dsDNA)
DNA 1: TGGAAAAGCCAGAAACAGTG
DNA 2: CACTGTTTCTGGCTTTTCCA
**Q.** Which Kd does the source give for B7 here?
**A.** 68 ± 48 nM

B8: R3-18-6G (dsDNA)
DNA 1: GGAATGGGTGGAAAAGCC
DNA 2: GGCTTTTCCACCCATTCC
**Q.** Which Kd does the source give for B8 here?
**A.** 209 ± 77 nM

B9: R3-18-4G (dsDNA)
DNA 1: GGAGTAGGTGGAAAAGCC
DNA 2: GGCTTTTCCACCTACTCC
**Q.** Which Kd does the source give for B9 here?
**A.** 62 ± 15 nM

B10: R3-18-11T (dsDNA)
DNA 1: GGAATAGGTGTAAAAGCC
DNA 2: GGCTTTTACACCTATTCC
**Q.** For B10, which Kd is on record?
**A.** 41 ± 9 nM

B11: R3-18-8A (dsDNA)
DNA 1: GGAATAGATGGAAAAGCC
DNA 2: GGCTTTTCCATCTATTCC
**Q.** How did the Kd turn out when B11 was run?
**A.** 30 ± 7 nM

B12: R3-18-5G (dsDNA)
DNA 1: GGAAGAGGTGGAAAAGCC
DNA 2: GGCTTTTCCACCTCTTCC
**Q.** For B12, which Kd is on record?
**A.** 38 ± 9 nM

B13: R3-18-12T (dsDNA)
DNA 1: GGAATAGGTGGTAAAGCC
DNA 2: GGCTTTACCACCTATTCC
**Q.** For B13, which Kd is on record?
**A.** 57 ± 16 nM

B14: R3-18-5A (dsDNA)
DNA 1: GGAAAAGGTGGAAAAGCC
DNA 2: GGCTTTTCCACCTTTTCC
**Q.** Which Kd does the source give for B14 here?
**A.** 27 ± 11 nM

B15: R3-18-11A (dsDNA)
DNA 1: GGAATAGGTGAAAAAGCC
DNA 2: GGCTTTTTCACCTATTCC
**Q.** Which Kd does the source give for B15 here?
**A.** 44 ± 21 nM

B16: R3-18-8C (dsDNA)
DNA 1: GGAATAGCTGGAAAAGCC
DNA 2: GGCTTTTCCAGCTATTCC
**Q.** For B16, which Kd is on record?
**A.** 32 ± 8 nM

B17: R3-18-14G (dsDNA)
DNA 1: GGAATAGGTGGAAGAGCC
DNA 2: GGCTCTTCCACCTATTCC
**Q.** For B17, which Kd is on record?
**A.** 42 ± 9 nM

B18: R3-18-7A (dsDNA)
DNA 1: GGAATAAGTGGAAAAGCC
DNA 2: GGCTTTTCCACTTATTCC
**Q.** For B18, which Kd is on record?
**A.** 15 ± 5 nM

B19: R3-18-9C (dsDNA)
DNA 1: GGAATAGGCGGAAAAGCC
DNA 2: GGCTTTTCCGCCTATTCC
**Q.** B19 was tested. Which Kd did it give?
**A.** 46 ± 11 nM

B20: R3-18-14C (dsDNA)
DNA 1: GGAATAGGTGGAACAGCC
DNA 2: GGCTGTTCCACCTATTCC
**Q.** For B20, which Kd is on record?
**A.** 33 ± 10 nM

B21: R1-18 (dsDNA)
DNA 1: TGGCTATCCAGTAAAGTA
DNA 2: TACTTTACTGGATAGCCA
**Q.** For B21, which Kd is on record?
**A.** 950 ± 680 nM

B22: R4-16 (dsDNA)
DNA 1: GAAAAGCCAGAAACAG
DNA 2: CTGTTTCTGGCTTTTC
**Q.** With B22 as the binder, how does the Kd read?
**A.** 530 ± 50 nM

B23: R3-18-3G (dsDNA)
DNA 1: GGGATAGGTGGAAAAGCC
DNA 2: GGCTTTTCCACCTATCCC
**Q.** How did the Kd turn out when B23 was run?
**A.** 121 ± 31 nM

B24: R3-18-9G (dsDNA)
DNA 1: GGAATAGGGGGAAAAGCC
DNA 2: GGCTTTTCCCCCTATTCC
**Q.** Which Kd does the source give for B24 here?
**A.** 365 ± 57 nM

B25: R3-18-4T (dsDNA)
DNA 1: GGATTAGGTGGAAAAGCC
DNA 2: GGCTTTTCCACCTAATCC
**Q.** Which Kd does the source give for B25 here?
**A.** 33 ± 8 nM

B26: R3-18-2A (dsDNA)
DNA 1: GAAATAGGTGGAAAAGCC
DNA 2: GGCTTTTCCACCTATTTC
**Q.** B26 was tested. Which Kd did it give?
**A.** 59 ± 29 nM

B27: R3-18-2C (dsDNA)
DNA 1: GCAATAGGTGGAAAAGCC
DNA 2: GGCTTTTCCACCTATTGC
**Q.** For B27, which Kd is on record?
**A.** 189 ± 22 nM

B28: R3-18-1A (dsDNA)
DNA 1: AGAATAGGTGGAAAAGCC
DNA 2: GGCTTTTCCACCTATTCT
**Q.** Which Kd does the source give for B28 here?
**A.** 56 ± 12 nM

B29: R3-18-11C (dsDNA)
DNA 1: GGAATAGGTGCAAAAGCC
DNA 2: GGCTTTTGCACCTATTCC
**Q.** B29 was tested. Which Kd did it give?
**A.** 56 ± 11 nM

B30: R3-18-6C (dsDNA)
DNA 1: GGAATCGGTGGAAAAGCC
DNA 2: GGCTTTTCCACCGATTCC
**Q.** How did the Kd turn out when B30 was run?
**A.** 60 ± 28 nM

B31: R3-18-8T (dsDNA)
DNA 1: GGAATAGTTGGAAAAGCC
DNA 2: GGCTTTTCCAACTATTCC
**Q.** For B31, which Kd is on record?
**A.** 17 ± 6 nM

B32: R3-18-12G (dsDNA)
DNA 1: GGAATAGGTGGGAAAGCC
DNA 2: GGCTTTCCCACCTATTCC
**Q.** For B32, which Kd is on record?
**A.** 203 ± 43 nM

B33: R3-18-7C (dsDNA)
DNA 1: GGAATACGTGGAAAAGCC
DNA 2: GGCTTTTCCACGTATTCC
**Q.** How did the Kd turn out when B33 was run?
**A.** 36 ± 9 nM

B34: R3-18-12C (dsDNA)
DNA 1: GGAATAGGTGGCAAAGCC
DNA 2: GGCTTTGCCACCTATTCC
**Q.** For B34, which Kd is on record?
**A.** 58 ± 31 nM

B35: R3-18-9A (dsDNA)
DNA 1: GGAATAGGAGGAAAAGCC
DNA 2: GGCTTTTCCTCCTATTCC
**Q.** How did the Kd turn out when B35 was run?
**A.** 143 ± 31 nM

B36: R3-18-13G (dsDNA)
DNA 1: GGAATAGGTGGAGAAGCC
DNA 2: GGCTTCTCCACCTATTCC
**Q.** For B36, which Kd is on record?
**A.** 64 ± 15 nM

B37: R3-18-4C (dsDNA)
DNA 1: GGACTAGGTGGAAAAGCC
DNA 2: GGCTTTTCCACCTAGTCC
**Q.** For B37, which Kd is on record?
**A.** 45 ± 12 nM

B38: R3-18-1C (dsDNA)
DNA 1: CGAATAGGTGGAAAAGCC
DNA 2: GGCTTTTCCACCTATTCG
**Q.** For B38, which Kd is on record?
**A.** 216 ± 22 nM

B39: R3-18-3T (dsDNA)
DNA 1: GGTATAGGTGGAAAAGCC
DNA 2: GGCTTTTCCACCTATACC
**Q.** B39 was tested. Which Kd did it give?
**A.** 123 ± 12 nM

B40: R3-18-5C (dsDNA)
DNA 1: GGAACAGGTGGAAAAGCC
DNA 2: GGCTTTTCCACCTGTTCC
**Q.** How did the Kd turn out when B40 was run?
**A.** 39 ± 13 nM

B41: R3-18-7T (dsDNA)
DNA 1: GGAATATGTGGAAAAGCC
DNA 2: GGCTTTTCCACATATTCC
**Q.** How did the Kd turn out when B41 was run?
**A.** 35 ± 5 nM

B42: R3-18-13C (dsDNA)
DNA 1: GGAATAGGTGGACAAGCC
DNA 2: GGCTTGTCCACCTATTCC
**Q.** How did the Kd turn out when B42 was run?
**A.** 46 ± 12 nM

B43: R3-18-2T (dsDNA)
DNA 1: GTAATAGGTGGAAAAGCC
DNA 2: GGCTTTTCCACCTATTAC
**Q.** B43 was tested. Which Kd did it give?
**A.** 187 ± 20 nM

B44: R3-18-10T (dsDNA)
DNA 1: GGAATAGGTTGAAAAGCC
DNA 2: GGCTTTTCAACCTATTCC
**Q.** How did the Kd turn out when B44 was run?
**A.** 18 ± 2 nM
